Reference: US20180343839A1 (BROAD INSTITUTE, published 2018)

Molecular target: RAB28 (human, UniProt P51157 2-218)
Experiment: CRBN interaction study (HA-CRBN immunoprecipitation, SILAC MS); assay not given

binding result: no binding
B1: HA-CRBN (hemagglutinin (HA)-tagged human CRBN) (other)
chain: MAGEGDQQDAAHNMGNHLPLLPESEEEDEMEVEDQDSKEAKKPNIINFDTSLPTSHTYLGADMEEFHGRTLHDDDSCQVIPVLPQVMMILIPGQTLPLQLFHPQEVSMVRNLIQKDRTFAVLAYSNVQEREAQFGTTAEIYAYREEQDFGIEIVKVKAIGRQRFKVLELRTQSDGIQQAKVQILPECVLPSTMSAVQLESLNKCQIFPSKPVSREDQCSYKWWQKYQKRKFHCANLTSWPRWLYSLYDAETLMDRIKKQLREWDENLKDDSLPSNPIDFSYRVAACLPIDDVLRIQLLKIGSAIQRLRCELDIMNKCTSLCCKQCQETEITTKNEIFSLSLCGPMAAYVNPHGYVHETLTVYKACNLNLIGRPSTEHSWFPGYAWTVAQCKICASHIGWKFTATKKDMSPQKFWGLTRSALLPTIPDTEDEISPDKVILCL
notes: the clone used (Broad ORF007943.1_s300c1); its numbering fits V387, Y383 and W385 as printed; also called HA-tagged CRBN; HA-CBRN; not shown: HA tag
